These results are taken from article PMC8546591, “Neodymium as Metal Cofactor for Biological Methanol Oxidation: Structure and Kinetics of an XoxF1-Type Methanol Dehydrogenase” (mBio, 2021).

One series concerns CO. Put plainly: purified protein. As to conditions: pH 7, 45°C, 1 mM PES, 100 μM DCPIP, 200 nM enzyme, no ammonium, first 2 min.
The subject of a further series is C=O. As to the kind of experiment: purified protein. As to conditions: pH 7, 45°C, 1 mM PES, 100 μM DCPIP, 200 nM enzyme, no ammonium, first 2 min, formaldehyde from dissolved paraformaldehyde.

By Km is commonly meant the substrate concentration at which the rate is half of its maximum. Turning to “Nd-XoxF1 (XoxF1-type methanol dehydrogenase) (Methylacidimicrobium sp. AP8)”, the Km with CO was 1.4 ± 0.6 µM; in the series on C=O it was 1.6 ± 0.8 µM.
